The values that follow come from publication PMC3474739, “Novel Frataxin Isoforms May Contribute to the Pathological Mechanism of Friedreich Ataxia” (PLoS ONE, 2012).

B1: frataxin isoform II (natural protein, human, UniProt Q16595 76-210, looked up)
chain: MNLRKSGTLGHPGSLDETTYERLAEETLDSLAEFFEDLADKPYTFEDYDVSFGSGVLTVKLGGDLGTYVINKQTPNKQIWLSSPSSGPKRYDWTGKNWVYSHDGVSLHELLAAELTKALKTKLDLSSLAYSGKDA
notes: human frataxin isoform II, 135 amino acids, 14.9 kDa, begins at the second AUG (methionine, 76th aa of the FXN precursor) and runs to the stop codon; Cloned into pET24a(+) with NdeI and XhoI sites; also called FXN II; FXN isoform II; source: E. coli BL21(DE3), purified
B2: human ISCU, mitochondrial mature form (natural protein, UniProt Q9H1K1 35-167, looked up)
chain: YHKKVVDHYENPRNVGSLDKTSKNVGTGLVGAPACGDVMKLQIQVDEKGKIVDARFKTFGCGSAIASSSLATEWVKGKTVEEALTIKNTDIAKELCLPPVKLHCSMLAEDAIKAALADYKLKQEPKKGEAEKK
notes: human ISCU, mitochondrial mature form; source: E. coli BL21(DE3), purified

Common to all, as to assay: SEC; purified ISCS/ISD11, ISCU and FXN isoform mixed at a molar ratio of 1:1:1, 1 h anaerobically at room temperature, then Superdex200 in 50 mM Tris, 200 mM NaCl, 5 µM PLP, pH 8.0; fractions analysed by SDS-PAGE
Common to all, as to conditions: both partners purified
(In gel filtration, larger molecules generally elute earlier.)

In one experiment the target is T1, ISCS/ISD11 (human, UniProt Q9Y697 56-457; Q9HD34 1-91).
T1 construct: human mitochondrial ISCS (NFS1) that misses the first 55 amino acids of the precursor (NFS1Δ1-55); human ISD11; Both chains in pACYCDuet-1; also called NFS1Δ1-55 with ISD11; source: E. coli, co-expressed (plasmid pZM90b), purified; also co-expressed with His-ISCU in E. coli BL21(DE3) or CL100(DE3), in lysate

The experiment “frataxin isoform II” has as its target B1.
In experiment [1] the target is B2.

T1 sequence (Q9Y697 56-457, chain 1 of 2): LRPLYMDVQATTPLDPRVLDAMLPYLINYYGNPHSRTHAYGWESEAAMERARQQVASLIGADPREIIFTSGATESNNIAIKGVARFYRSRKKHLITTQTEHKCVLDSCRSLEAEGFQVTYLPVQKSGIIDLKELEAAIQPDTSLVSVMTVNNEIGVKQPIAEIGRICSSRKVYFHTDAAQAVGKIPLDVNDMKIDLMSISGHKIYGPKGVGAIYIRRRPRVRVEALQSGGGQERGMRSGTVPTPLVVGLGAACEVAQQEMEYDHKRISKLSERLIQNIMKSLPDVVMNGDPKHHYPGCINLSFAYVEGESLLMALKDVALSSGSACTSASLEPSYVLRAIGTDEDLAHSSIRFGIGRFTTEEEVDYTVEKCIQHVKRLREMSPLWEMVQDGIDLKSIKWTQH
T1 sequence (Q9HD34 whole entry, chain 2 of 2): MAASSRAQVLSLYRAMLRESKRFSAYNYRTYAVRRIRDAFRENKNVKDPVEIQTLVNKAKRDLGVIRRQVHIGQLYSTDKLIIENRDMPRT

As to B1, the binding result in the experiment with ISCS/ISD11 was “binds”.
Consider B2, for which the binding result in the experiment with frataxin isoform II and with ISCS/ISD11 was “binds” in each case.

B3: frataxin isoform I, mature form (natural protein, human, UniProt Q16595 81-210, looked up)
chain: SGTLGHPGSLDETTYERLAEETLDSLAEFFEDLADKPYTFEDYDVSFGSGVLTVKLGGDLGTYVINKQTPNKQIWLSSPSSGPKRYDWTGKNWVYSHDGVSLHELLAAELTKALKTKLDLSSLAYSGKDA
notes: Cloned into pET24a(+) with NdeI and XhoI sites; also called FXN I; FXN isoform I; source: E. coli BL21(DE3), purified
Consider B3, for which the binding result (with ISCS/ISD11; in experiment [1]) was “binds” each time.
